Assay results taken from patent US20080176225A1, “MEMBRANE BOUND REPORTER GENE SYSTEM” (priority 2007, published 2008).

Columns and labels:
[1] = Specific activity and pH profile of purified recombinant β-glucuronidases; format: biochemical; settings: purified recombinant protein, n=3; for maximal specific activity: at optimal pH
Description: It is contemplated that the disparity between the relative surface expression levels the relative enzymatic activity of human β-glucuronidase, mouse β-glucuronidase, and E. coli β-glucuronidase in EJ cells is probably because of the neutral pH optimum of E. coli β-glucuronidase or a highly specific enzyme activity for the recombinant E. coli β-glucuronidase enzyme, which could cause the relatively effective hydrolysis of glucuronide substrates even though even though the expression levels of E. coli β-glucuronidase present on EJ/eβG cells are relatively lower than the expression levels of human β-glucuronidase. To differentiate these possibilities, recombinant forms of each enzyme are purified in order to measure accurately their specific activities at defined pH values.
The relative enzymatic activities (percentage maximum activity) of these recombinant enzymes at the indicated pH values are shown (n=3).
E. coli β-glucuronidase display a maximal specific activity of about 20,000 U/mg whereas human β-glucuronidase and mouse β-glucuronidase had maximal specific activities of abut 1600 U/mg and about 1100 U/mg, respectively.

3T3 fibroblasts = assay: Surface enzyme activity assay of transiently transfected 3T3 fibroblasts (4-methylumbelliferyl β-D-glucuronide); format: cell-based, murine
Method: (§1) For performing surface enzyme activity assay, transiently-transfected 3T3 fibroblasts in 96-well microplates were washed once with phosphate-buffered saline and immediately assayed for βG activity by adding about 200 μl of phosphate-buffered saline (pH 7.0) buffer containing 0.1% of BSA and 0.25 mM of a β-glucuronidase substrate, 4-methylumbelliferyl β-D-glucuronide, for 30 min at 37° C. About 150 μl of the resulting mixture was transferred to a 96-well fluorescence microplate and mixed with about 75 μl of a stop buffer containing about 1 M of glycine and about 0.5 M of sodium bicarbonate at pH 11. The fluorescence of each mixture was measured at an excitation wavelength of 365 nm and an emission wavelength of 455 nm.
3T3 fibroblasts were transfected with plasmid DNAs using lipofectamine. After about 48 hour, the transfected cells were washed with phosphate-buffered saline and immediately assayed for β-glucuronidase activity by adding 4-methylumbelliferyl β-D-glucuronide for about 30 min at 37° C. The fluorescence (MUG reading as shown) of the resulting mixture was measured. The β-glucuronidase activity in the culture medium of transfected cells was also measured in an analogous way.

EJ cells = assay: Surface β-glucuronidase enzyme activity of stable EJ cells; format: cell-based, human; settings: triplicate determinations
Method: as §1
The results shown are the mean values of triplicate determinations. EJ/mβG cells display about 2-3 fold more β-glucuronidase activity than EJ/eβG cells and about 5-fold higher activity than EJ/hβG cells. […] The enzymatic activity of E. coli β-glucuronidase in EJ cells are relatively higher than human β-glucuronidase, even though the expression levels of E. coli β-glucuronidase present on EJ/eβG cells are relatively lower than the expression levels of human β-glucuronidase.

B1: mouse β-glucuronidase: purified recombinant mouse β-glucuronidase protein (protein, listed as Mus musculus)
chain: LKGGMLFPKESPSRELKALDGLWHFRADLSNNRLQGFEQQWYRQPLRESGPVLDMPVPSSFNDITQEAALRDFIGWVWYEREAILPRRWTQDTDMRVVLRINSAHYYAVVWVNGIHVVEHEGGHLPFEADISKLVQSGPLTTCRITIAINNTLTPHTLPPGTIVYKTDTSMYPKGYFVQDTSFDFFNYAGLHRSVVLYTTPTTYIDDITVITNVEQDIGLVTYWISVQGSEHFQLEVQLLDEDGKVVAHGTGNQGQLQVPSANLWWPYLMHEHPAYMYSLEVKVTTTESVTDYYTLPVGIRTVAVTKSKFLINGKPFYFQGVNKHEDSDIRGKGFDWPLLVKDFNLLRWLGANSFRTSHYPYSEEVLQLCDRYGIVVIDECPGVGIVLPQSFGNESLRHHLEVMEELVRRDKNHPAVVMWSVANEPSSALKPAAYYFKTLITHTKALDLTRPVTFVSNAKYDADLGAPYVDVICVNSYFSWYHDYGHLEVIQPQLNSQFENWYKTHQKPIIQSEYGADAIPGIHEDPPRMFSEEYQKAVLENYHSVLDQKRKEYVVGELIWNFADFMTNQSPLRVIGNKKGIFTRQRQPKTSAFILRERYWRIANETGGHGSGPRTQCFGSRPFTF
In the case of B1, the maximal specific activity [1] is reported as “about 1100 U/mg”.

B2: E. coli β-glucuronidase: purified recombinant E. coli β-glucuronidase protein (protein, UniProt P05804 1-603, looked up)
Beta-glucuronidase: MLRPVETPTREIKKLDGLWAFSLDRENCGIDQRWWESALQESRAIAVPGSFNDQFADADIRNYAGNVWYQREVFIPKGWAGQRIVLRFDAVTHYGKVWVNNQEVMEHQGGYTPFEADVTPYVIAGKSVRITVCVNNELNWQTIPPGMVITDENGKKKQSYFHDFFNYAGIHRSVMLYTTPNTWVDDITVVTHVAQDCNHASVDWQVVANGDVSVELRDADQQVVATGQGTSGTLQVVNPHLWQPGEGYLYELCVTAKSQTECDIYPLRVGIRSVAVKGEQFLINHKPFYFTGFGRHEDADLRGKGFDNVLMVHDHALMDWIGANSYRTSHYPYAEEMLDWADEHGIVVIDETAAVGFNLSLGIGFEAGNKPKELYSEEAVNGETQQAHLQAIKELIARDKNHPSVVMWSIANEPDTRPQGAREYFAPLAEATRKLDPTRPITCVNVMFCDAHTDTISDLFDVLCLNRYYGWYVQSGDLETAEKVLEKELLAWQEKLHQPIIITEYGVDTLAGLHSMYTDMWSEEYQCAWLDMYHRVFDRVSAVVGEQVWNFADFATSQGILRVGGNKKGIFTRDRKPKSAAFLLQKRWTGMNFGEKPQQGGKQ
For B2, the maximal specific activity [1] was “about 20,000 U/mg” and the “pH of maximal/optimal enzymatic activity” value [1] was “neutral pH range”.

B3: human β-glucuronidase: purified recombinant human β-glucuronidase protein (protein, listed as Homo sapiens)
chain: LQGGMLYPQESPSRECKELDGLWSFRADFSDNRRRGFEEQWYRRPLWESGPTVDMPVPSSFNDISQDWRLRHFVGWVWYEREVILPERWTQDLRTRVVLRIGSAHSYAIVWVNGVDTLEHEGGYLPFEADISNLVQVGPLPSRLRITIAINNTLTPTTLPPGTIQYLTDTSKYPKGYFVQNTYFDFFNYAGLQRSVLLYTTPTTYIDDITVTTSVEQDSGLVNYQISVKGSNLFKLEVRLLDAENKVVANGTGTQGQLKVPGVSLWWPYLMHERPAYLYSLEVQLTAQTSLGPVSDFYTLPVGIRTVAVTKSQFLINGKPFYFHGVNKHEDADIRGKGFDWPLLVKDFNLLRWLGANAFRTSHYPYAEEVMQMCDRYGIVVIDECPGVGLALPQFFNNVSLHHHMQVMEEVVRRDKNHPAVVMWSVANEPASHLESAGYYLKMVIAHTKSLDPSRPVTFVSNSNYAADKGAPYVDVICLNSYYSWYHDYGHLELIQLQLATQFENWYKKYQKPIIQSEYGAETIAGFHQDPPLMFTEEYQKSLLEQYHLGLDQKRRKYVVGELIWNFADFMTEQSPTRVLGNKKGIFTRQRQPKSAAFLLRERYWKIANETRYPHSVAKSQCLENSPFT
For B3, the maximal specific activity [1] was about 1600 U/mg.

B4: hβG-e-B7: human β-glucuronidase fused to Ig-like C2-type and Ig-hinge-like domains, TM and cytoplasmic tail of murine B7-1 (protein)
chain: LQGGMLYPQESPSRECKELDGLWSFRADFSDNRRRGFEEQWYRRPLWESGPTVDMPVPSSFNDISQDWRLRHFVGWVWYEREVILPERWTQDLRTRVVLRIGSAHSYAIVWVNGVDTLEHEGGYLPFEADISNLVQVGPLPSRLRITIAINNTLTPTTLPPGTIQYLTDTSKYPKGYFVQNTYFDFFNYAGLQRSVLLYTTPTTYIDDITVTTSVEQDSGLVNYQISVKGSNLFKLEVRLLDAENKVVANGTGTQGQLKVPGVSLWWPYLMHERPAYLYSLEVQLTAQTSLGPVSDFYTLPVGIRTVAVTKSQFLINGKPFYFHGVNKHEDADIRGKGFDWPLLVKDFNLLRWLGANAFRTSHYPYAEEVMQMCDRYGIVVIDECPGVGLALPQFFNNVSLHHHMQVMEEVVRRDKNHPAVVMWSVANEPASHLESAGYYLKMVIAHTKSLDPSRPVTFVSNSNYAADKGAPYVDVICLNSYYSWYHDYGHLELIQLQLATQFENWYKKYQKPIIQSEYGAETIAGFHQDPPLMFTEEYQKSLLEQYHLGLDQKRRKYVVGELIWNFADFMTEQSPTRVLGNKKGIFTRQRQPKSAAFLLRERYWKIANETRYPHSVAKSQCLENSPFTVDEQKLISEEDLADFSTPNITESGNPSADTKRITCFASGGFPKPRFSWLENGRELPGINTTISQDPESELYTISSQLDFNTTRNHTIKCLIKYGDAHVSEDFTWEKPPEDPPDSKNTLVLFGAGFGAVITVVVIVVIIKCFCKHRSCFRRNEASRETNNSLTFGPEEALAEQTVFL
For B4, the “β-glucuronidase enzyme activity on the cell surface” value (3T3 fibroblasts) was “greatest levels”.

B5: mβG-e-B7: murine β-glucuronidase fused to immunoglobulin-like C2-type extracellular region, transmembrane domain and cytoplasmic tail of murine B7-1 antigen (protein)
chain: LKGGMLFPKESPSRELKALDGLWHFRADLSNNRLQGFEQQWYRQPLRESGPVLDMPVPSSFNDITQEAALRDFIGWVWYEREAILPRRWTQDTDMRVVLRINSAHYYAVVWVNGIHVVEHEGGHLPFEADISKLVQSGPLTTCRITIAINNTLTPHTLPPGTIVYKTDTSMYPKGYFVQDTSFDFFNYAGLHRSVVLYTTPTTYIDDITVITNVEQDIGLVTYWISVQGSEHFQLEVQLLDEDGKVVAHGTGNQGQLQVPSANLWWPYLMHEHPAYMYSLEVKVTTTESVTDYYTLPVGIRTVAVTKSKFLINGKPFYFQGVNKHEDSDIRGKGFDWPLLVKDFNLLRWLGANSFRTSHYPYSEEVLQLCDRYGIVVIDECPGVGIVLPQSFGNESLRHHLEVMEELVRRDKNHPAVVMWSVANEPSSALKPAAYYFKTLITHTKALDLTRPVTFVSNAKYDADLGAPYVDVICVNSYFSWYHDYGHLEVIQPQLNSQFENWYKTHQKPIIQSEYGADAIPGIHEDPPRMFSEEYQKAVLENYHSVLDQKRKEYVVGELIWNFADFMTNQSPLRVIGNKKGIFTRQRQPKTSAFILRERYWRIANETGGHGSGPRTQCFGSRPFTFVDEQKLISEEDLADFSTPNITESGNPSADTKRITCFASGGFPKPRFSWLENGRELPGINTTISQDPESELYTISSQLDFNTTRNHTIKCLIKYGDAHVSEDFTWEKPPEDPPDSKNTLVLFGAGFGAVITVVVIVVIIKCFCKHRSCFRRNEASRETNNSLTFGPEEALAEQTVFL
In the case of B5, the “surface β-glucuronidase activity of EJ/mβG cells relative to EJ/hβG cells” value (EJ cells; higher activity) is reported as “about 5 fold” and the “surface β-glucuronidase activity of EJ/mβG cells relative to EJ/eβG cells” value (EJ cells; more activity) is reported as 2-3 fold.
